We go through one protein from publication PMC12344017 (Nature Communications, 2025).

The data set concerns the molecule itself. The experiment in a line: cryo-EM structure.

B1: MscS/YnaI chimera (other, E. coli | Escherichia coli, UniProt P0C0S1 1-31, looked up)
chain: MEDLNVVDSINGAGSWLVANQALLLSYAVNIIDFICTSLIAVILTIKLFLLINQFEKQQIKKGRDITSARIMSRIIKITIIVVLVLLYGEHFGMSLSGLLTFGGIGGLAVGMAGKDILSNFFSGIMLYFDRPFSIGDWIRSPDRNIEGTVAEIGWRITKITTFDNRPLYVPNSLFSSISVENPGRMTNRRITTTIGLRYEDAAKVGVIVEAVREMLKNHPAIDQRQTLLVYFNQFADSSLNIMVYCFTKTTVWAEWLAAQQDVYLKIIDIVQSHGADFAFPSQTLYMDNITPPEQGR
Consider B1, for which the binding result is recorded as “binds”.
